Test results: patent publication US20030181369A1 (published 2003)

B1: HSV-tagged 16K derivative α2 (helix 2, amino acids 35-88) (other, not shown: small tags and cut ends)
chain: AKSGTGIAAMSVMRPEQIMKSIIPVVMAGIIAIYGLVVAVLIANSLNDDISLYK

Target: T1, T7-epitope tagged bovine β1 integrin (bovine, UniProt P53712 21-798)
T1 construct: mature; Expressed in HEK293 cells and detected in lysates with anti-T7 antibody; also called T7-β1 integrin; T7 tagged β1; not shown: le
Test: co-immunoprecipitation with anti-HSV antibody, anti-T7 Western blot (FIG. 5B panel c)
Method: 16K derivatives were cotransfected with T7 tagged β1 integrin into HEK293 cells. Integrin expression was assessed by Western blot analysis of RIPA lysates probed with anti-T7 antibody (panel a), and glycosylation by GlcNAc-TV was assessed by incubating extracts with agarose-conjugated L-PHA and analysing recovered proteins with anti-T7 antibody (panel b). Proteins interacting with 16K or 16K mutants were isolated by immunoprecipitation using anti-HSV antibody followed by agarose conjugated protein A, and recovery of T7-β1 integrin monitored by Western blot analysis using anti-T7 antibody (panel c).
RIPA lysates made from HEK293 cells transiently transfected with pXJ41-T7-β1 were resolved on 8% SDS-PAGE, transferred to nitrocellulose, and probed with anti-T7 antibody. Alternatively, lysates were treated with endoglycosidase H (2 units) or glycopeptidase F and incubated at 37° C. overnight in the manufacturer's (Calbiochem) recommended buffers. Agarose conjugated L-PHA and ConA were used to isolate β1-6 branched and high mannose forms of β1 integrin respectively. Lysates made from cells co-transfected with HSV tagged 16K were treated with anti-HSV antibody and agarose-conjugated protein A and recovered complexes were analysed by Western blot as above. […]

T1 sequence (P53712 21-798): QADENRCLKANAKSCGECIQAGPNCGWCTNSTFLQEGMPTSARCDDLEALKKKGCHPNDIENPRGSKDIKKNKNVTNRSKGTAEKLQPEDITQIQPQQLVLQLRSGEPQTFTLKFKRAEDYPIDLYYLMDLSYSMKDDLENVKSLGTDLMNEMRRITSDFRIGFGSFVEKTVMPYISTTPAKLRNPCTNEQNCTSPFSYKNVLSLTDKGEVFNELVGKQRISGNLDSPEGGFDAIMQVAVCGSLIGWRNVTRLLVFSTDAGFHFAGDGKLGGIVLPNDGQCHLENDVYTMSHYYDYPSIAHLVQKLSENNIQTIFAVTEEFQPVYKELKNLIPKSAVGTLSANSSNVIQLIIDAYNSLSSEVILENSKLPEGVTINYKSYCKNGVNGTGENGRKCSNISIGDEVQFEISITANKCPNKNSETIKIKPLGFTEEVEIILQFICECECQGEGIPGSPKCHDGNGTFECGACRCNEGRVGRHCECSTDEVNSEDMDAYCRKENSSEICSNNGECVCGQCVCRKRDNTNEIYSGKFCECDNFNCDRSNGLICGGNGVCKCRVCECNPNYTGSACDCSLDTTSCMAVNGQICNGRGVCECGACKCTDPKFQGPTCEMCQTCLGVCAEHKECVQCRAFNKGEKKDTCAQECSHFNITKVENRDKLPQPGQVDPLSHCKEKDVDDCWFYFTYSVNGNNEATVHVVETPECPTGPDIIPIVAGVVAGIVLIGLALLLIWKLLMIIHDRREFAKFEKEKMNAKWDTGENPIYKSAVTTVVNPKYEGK

Row | Binder | binding result
1 | GIVGDAGVRGTAQQPRLFVGMILILIFAEVLGLYGLIVALILSTK (other, not shown: small tags and cut ends) [HSV-tagged 16K derivative α4 (helix 4, amino acids 111-156)] | no binding
2 | B1 | no binding
